Source: ChEMBL document CHEMBL1145519, “Exploitation of structural and regulatory diversity in glutamate racemases” (Nature, 2007)

How the values were obtained:
[1] = substrate: N[C@@H](CCC(=O)O)C(=O)O; settings: Helicobacter pylori
Description: Activity of Helicobacter pylori MurI

[2] = substrate: N[C@H](CCC(=O)O)C(=O)O; settings: Helicobacter pylori
Description: Activity of Helicobacter pylori MurI

[3] = substrate: N[C@@H](CCC(=O)O)C(=O)O; settings: Helicobacter pylori; remark: listed apart in the source
Description: (§2) Activity of Helicobacter pylori MurI A75T mutant

[4] = substrate: N[C@H](CCC(=O)O)C(=O)O; settings: Helicobacter pylori; remark: listed apart in the source
Description: as §2

[5] = substrate: N[C@@H](CCC(=O)O)C(=O)O; settings: Helicobacter pylori; remark: listed apart in the source
Description: (§3) Activity of Helicobacter pylori MurI E151K mutant

[6] = substrate: N[C@H](CCC(=O)O)C(=O)O; settings: Helicobacter pylori; remark: listed apart in the source
Description: as §3

[7] = substrate: N[C@@H](CCC(=O)O)C(=O)O; experiment: (§1) Activity of Enterococcus faecalis MurI
[8] = substrate: N[C@H](CCC(=O)O)C(=O)O; experiment: as §1

B1: Glutamate racemase (Helicobacter pylori (strain ATCC 700392 / 26695) (Campylobacterpylori)), P56068 (protein)
chain: MKIGVFDSGVGGFSVLKSLLKAQLFDEIIYYGDSARVPYGTKDPTTIKQFGLEALDFFKPHQIKLLIVACNTASALALEEMQKHSKIPVVGVIEPSILAIKRQVKDKNAPILVLGTKATIQSNAYDNALKQQGYLNVSHLATSLFVPLIEESILEGELLETCMRYYFTPLEILPEVVILGCTHFPLIAQKIEGYFMEHFALSTPPLLIHSGDAIVEYLQQNYALKKNACAFPKVEFHASGDVVWLEKQAKEWLKL
Which results are given for B1?
Km [1]: 740 µM; kcat [1]: 1.05 s⁻¹; Km [2]: 63 µM; kcat [2]: 0.2 s⁻¹

B2: Glutamate racemase (Helicobacter pylori (strain ATCC 700392 / 26695) (Campylobacterpylori)), P56068 A75T (protein)
chain: MKIGVFDSGVGGFSVLKSLLKAQLFDEIIYYGDSARVPYGTKDPTTIKQFGLEALDFFKPHQIKLLIVACNTASTLALEEMQKHSKIPVVGVIEPSILAIKRQVKDKNAPILVLGTKATIQSNAYDNALKQQGYLNVSHLATSLFVPLIEESILEGELLETCMRYYFTPLEILPEVVILGCTHFPLIAQKIEGYFMEHFALSTPPLLIHSGDAIVEYLQQNYALKKNACAFPKVEFHASGDVVWLEKQAKEWLKL
Which results are given for B2?
Km [3]: 7430 µM; kcat [3]: 1.78 s⁻¹; Km [4]: 275 µM; kcat [4]: 0.065 s⁻¹

B3: Glutamate racemase (Helicobacter pylori (strain ATCC 700392 / 26695) (Campylobacterpylori)), P56068 E151K (protein)
chain: MKIGVFDSGVGGFSVLKSLLKAQLFDEIIYYGDSARVPYGTKDPTTIKQFGLEALDFFKPHQIKLLIVACNTASALALEEMQKHSKIPVVGVIEPSILAIKRQVKDKNAPILVLGTKATIQSNAYDNALKQQGYLNVSHLATSLFVPLIEKSILEGELLETCMRYYFTPLEILPEVVILGCTHFPLIAQKIEGYFMEHFALSTPPLLIHSGDAIVEYLQQNYALKKNACAFPKVEFHASGDVVWLEKQAKEWLKL
B3 was tested. Which Km [5] did it give?
Its Km is 7360 µM.

And the kcat [5]?
Its kcat is 2.27 s⁻¹.

What about the Km [6] of the same protein?
Its Km is 282 µM.

What about the kcat [6] of the same protein?
Its kcat is 0.0833 s⁻¹.

B4: Glutamate racemase (Enterococcus faecalis (strain ATCC 700802 / V583)), Q836J0 (protein)
chain: MSNQEAIGLIDSGVGGLTVLKEALKQLPNERLIYLGDTARCPYGPRPAEQVVQFTWEMADFLLKKRIKMLVIACNTATAVALEEIKAALPIPVVGVILPGARAAVKVTKNNKIGVIGTLGTIKSASYEIAIKSKAPTIEVTSLDCPKFVPIVESNQYRSSVAKKIVAETLQALQLKGLDTLILGCTHYPLLRPVIQNVMGSHVTLIDSGAETVGEVSMLLDYFDIAHTPEAPTQPHEFYTTGSAKMFEEIASSWLGIENLKAQQIHLGGNEND
B4 was tested. Which Km [7] did it give?
Its Km is 1200 µM.

And the kcat [7]?
Its kcat is 25 s⁻¹.

And the Km [8]?
The Km was 250 µM.

And the kcat [8]?
The kcat was 11.7 s⁻¹.
